Measurements as given in the nanobody polyreactivity screen of Harvey et al. (2022).

Assay: yeast display, Sf9 membrane polyspecificity reagent, FACS + sequencing; frameworks hold sequencing errors
Outline: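 Genes from sorted yeast were amplified by colony PCR, read by MiSeq 2 × 250 sequencing and filtered on CDR length. These cells carried a synthetic nanobody library in Saccharomyces cerevisiae BJ5465 and were sorted by FACS into low and high (top ~1%) gates on anti-HA and streptavidin fluorescence. Polyreactivity is labelled according to the gate of origin.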

Sequence | polyreactivity (PSR sort gate)
QDQLVESGGGLVQAGGSLRLSCAASGRILLDNAMGWYRQAPGKERELVAAISSGGRTYYADSVKGRFTISRDNAKNTVYLQLNSLKPEDTAVYYCAVSGGFYWGQGTQVTVSS | high polyreactivity
QDQLVESGGGLVQAGGSLRLSCAASGRILTKYAMGWYRQAPGKERELVAAISDSGTGTYYADSVKGRFTISRDNAKNTVYLQMNSLKPEDTAVYYCNAQTRRTRTYHGHKYGYWGQGTQVTVSS | high polyreactivity
QDQLVESGGGLVQAGGSLRLSCAASGRISPRYAMGWYRQAPGKERELVAAIDTSDGTTYFADSVKGRFTISRDNAKNTVYLQMNSLKPEDTAVYYCAAEGQLFDLYDYWGQGTQGTVSS | low polyreactivity
QDQLVESGGGLVQAGGSLRLSCAASGRNIGGYAMGWNRLAPGKEWELVAAISRSGGSTYYADSVKGRFTISRDNAKNTVYLQMNSLKPEDTAVYYCAAETVSSFYTLWTGKYDYWGQGTQVTVSS | high polyreactivity
QDQLVESGGGLVQAGGSLRLSCAASGRTFAYNAMGWYRQAPGKERELVADITSGGSTYYADSVKGRFTIARDNAKNKVYLQMNSLKPEDTAVYYCAAYTQFWYWDYNYWGQGTQVTVSS | high polyreactivity
QDQLVESGGGLVQAGGSLRLSCAASGRTFHKYAMGWSRQAPGKEMELVAAITGSGVRTYYADSVKGRFTISRDNAKNTVYLQMNSLKPEDTAVYYGNADSYNRNGDYWGQGTQVTVSS | high polyreactivity
QDQLVESGGGLVQAGGSLRLSCAASGRTFNGYAMGWYRQAPGKDRELVARITYRGGGTYYADSVKGRFTISRDNAKNTVYLQMNILKTEDTAVYYCNARGVQYRYYYWGQGTQVTVSS | high polyreactivity
QDQLVESGGGLVQAGGSLRLSCAASGRTFRRYALGWYRQAPGKETELVAVISGGGTYYADSVKGRFTISRDNAKNTVYLQMNSLKPEDTAVYYCAARYRQTRSPSYDYWGQGTQVTVSS | high polyreactivity
QDQLVESGGGLVQAGGSLRLSCAASGRTFRRYTKGWYRQAPGKERELVAAISRGGSTNYADSVKGRFTISRDNAMNTFYLQMNSLKPEDTAVYYCNADYWYDWNSYDYWGQGTQVTVSS | high polyreactivity
QDQLVESGGGLVQAGGSLRLSCAASGRTFTRYTMGRYRPAPVKERELVAAISSGGSTTYADSVKGRFTISRDNAKNTVYLQMNSLKPEDTAVYYCAAGLVYRGYRRDYWGQGTQVTVSS | low polyreactivity
QDQLVESGGGLVQAGGSLRLSCAASGRTFTYYTMGWYRQAPGKERELVAAITWSGGRTYYADSVKGRFTISRDYAKNTVYLQMNSLKPEDTAVYYCAKPPQGTYDYWGQGTQVNVSS | low polyreactivity
QDQLVESGGGLVQAGGSLRLSCAASGRTFVSYAMGWYRQAPGKERELVAGISWSGDSTYYADSEKGRFTISRDNAKNTVYLQMNSLKPEDTAVYYCAAVQRTDRSAHYSWGQGTQVTLSS | low polyreactivity
QDQLVESGGGLVQAGGSLRLSCAASGRTFVTYAMGWYRQAPGKEREFVAAITWSTGTSTYYADSVKGRFTISRDNAKNTVYLQMNSLKPEDTAGYYCAAYYVVHFGYWGQGTQVTVSS | low polyreactivity
QDQLVESGGGLVQAGGSLRLSCAASGRTFYANAMGWNRQAPGKERELVAAISSSDDITYYADSVKGRFTNSRDNAKNTVYLQINSMKPEDTAVYYCAAEEYIVTYSGFWQEYEYWGQGTQVTVSS | high polyreactivity
QDQLVESGGGLVQAGGSLRLSCAASGRTFYCYAMGGYRQAPGKDRELVAAISSGDITSYADSVKGRFTISRDNAKNTVYLQMNSVKPEDTAVYYCAAEVVAWSLYEDFKTYDYWGQGTQVTVSS | low polyreactivity
QDQLVESGGGLVQAGGSLRLSCAASGRTFYRYTMGWYRQAPGKESELVAGISWRGGTTYYADSVKGRFTISRDNAKNTVYLQMNSLKPEDTAVYYCAAKAGYRYGSLAYYKYDYWGQGTQVTVSS | high polyreactivity
QDQLVESGGGLVQAGGSLRLSCAASGRTLWRNTMGWYRQAPGKERELVAAITTRGGSTYYADSVKGRFTISRDNAKNTVYLQLNSLKPEDTAVYYCAARTYTGEGSGRFYYWGQGTQVTVSS | high polyreactivity
QDQLVESGGGLVQAGGSLRLSCAASGRTSIWNAMGWYRQAPGKERELVASISWSGGSTYYADSVKGRFTISRDNAKNTVYLQMNSLKPEDTAVYYCAKTAYFLVFNEHLHKKRYDSWGQGTQVTVSS | low polyreactivity
QDQLVESGGGLVQAGGSLRLSCAASGSIFAGYAMGWYRQAPGKESELVAAITSGGRTYYADSVKGRFTISRDNAKNTVYLQMNSLKPEDTAVYYCAKRWYTKTGYDYWGQGTQVTVSS | high polyreactivity
QDQLVESGGGLVQAGGSLRLSCAASGSIFAWNAMGWYRQAPGKERELVAVITSGGSTNYADSVKGRFTISRDNAKNTVYLQMNSLKPEDTAVYYCAARSWVYSVIGDYWGQVTQVTVSS | low polyreactivity
QDQLVESGGGLVQAGGSLRLSCAASGSIFFTNDMGWYRQAHGKEREFVAAITGGGGSTYYADSVKGRFTISRDNAKNTVYLQMNSLKPEDTAVYYCATKAKPRSGYNYWGQGTQVTVSS | low polyreactivity
